Kd data for one molecule are collected here from paper PMC7407834 (2020).

Ends that are not written are not given here.

One assay deals with T1, USPIO-LRPep2 (not fully specified (N-terminus, bridges); cysteine pairing not given here; also: grafted to USPIO nanoparticle).
T1 chain: HPWCCGLRLDLR
The assay can be described thus: ELISA.

The target in the next assay is T2, phage clone 1 peptide (phage-displayed).
T2 chain: GHIPTCLTPMCR
The assay can be described thus: ELISA.

B1: LDLR 22-788 (protein)
chain: not shown
For B1, the Kd with USPIO-LRPep2 stood at 72.5 nM; with phage clone 1 peptide, 0.136 nM.
